{
  "source": "patent US20260049138A1",
  "about": "(Chugai, published 2026)",
  "binders": {"B1": {"name": "CE115HA000 D101M one-arm antibody (antibody, human IgG1, kappa, L234A L235A, N297A, name in Kabat numbering)", "heavy": "QVQLVESGGGVVQPGRSLRLSCAASGFTFSNAWMHWVRQAPGKGLEWVAQIKAKSNNYATYYAESVKGRFTISRDDSKNSLYLQMNSLKTEDTAVYYCRYVHYGAYYGVMAWGQGTTVTVSSASTKGPSVFPLAPSSKSTSGGTAALGCLVKDYFPEPVTVSWNSGALTSGVHTFPAVLQSSGLYSLSSVVTVPSSSLGTQTYICNVNHKPSNTKVDKKVEPKSCDKTHTCPPCPAPEAAGGPSVFLFPPKPKDTLMISRTPEVTCVVVDVSHEDPEVKFNWYVDGVEVHNAKTKPREEQYASTYRVVSVLTVLHQDWLNGKEYKCKVSNKALPAPIEKTISKAKGQPREPQVYTLPPSRCELTKNQVSLSCAVKGFYPSDIAVEWESNGQPENNYKTTPPVLDSDGSFFLVSKLTVDKSRWQQGNVFSCSVMHEALHNHYTQKSLSLSPDYKDDDDK", "chain": "EPKSSDKTHTCPPCPAPELLGGPSVFLFPPKPKDTLMISRTPEVTCVVVDVSHEDPEVKFNWYVDGVEVHNAKTKPREEQYNSTYRVVSVLTVLHQDWLNGKEYKCKVSNKALPAPIEKTISKAKGQPREPQVCTLPPSRDELTKNQVSLWCLVKGFYPSDIAVEWESNGQPENNYKTTPPVLDSDGSFFLYSKLTVDKSRWQQGNVFSCSVMHEALHNRYTQKSLSLSP", "light": "DIVMTQSPLSLPVTPGEPASISCRSSQSLVHSNRNTYLHWYQQKPGQAPRLLIYKVSNRFSGVPDRFSGSGSGTDFTLKISRVEAEDVGVYYCGQGTQVPYTFGQGTKLEIKRTVAAPSVFIFPPSDEQLKSGTASVVCLLNNFYPREAKVQWKVDNALQSGNSQESVTEQDSKDSTYSLSSTLTLSKADYEKHKVYACEVTHQGLSSPVTKSFNRGEC"}, "B2": {"name": "CE115HA000 D101N one-arm antibody (antibody, human IgG1, kappa, L234A L235A, N297A, name in Kabat numbering)", "heavy": "B1 heavy with M110N", "chain": "B1 chain", "light": "B1 light"}, "B3": {"name": "CE115HA000 D101R one-arm antibody (antibody, human IgG1, kappa, L234A L235A, N297A, name in Kabat numbering)", "heavy": "B1 heavy with M110R", "chain": "B1 chain", "light": "B1 light"}, "B4": {"name": "CE115HA000 G98A one-arm antibody (antibody, human IgG1, kappa, L234A L235A, N297A, name in Kabat numbering)", "heavy": "B1 heavy with G104A, M110D", "chain": "B1 chain", "light": "B1 light"}, "B5": {"name": "CE115HA000 G100bE one-arm antibody (antibody, human IgG1, kappa, L234A L235A, N297A, name in Kabat numbering)", "heavy": "B1 heavy with G108E, M110D", "chain": "B1 chain", "light": "B1 light"}, "B6": {"name": "CE115HA000 G98T one-arm antibody (antibody, human IgG1, kappa, L234A L235A, N297A, name in Kabat numbering)", "heavy": "B1 heavy with G104T, M110D", "chain": "B1 chain", "light": "B1 light"}, "B7": {"name": "CE115HA000 G100bY one-arm antibody (antibody, human IgG1, kappa, L234A L235A, N297A, name in Kabat numbering)", "heavy": "B1 heavy with G108Y, M110D", "chain": "B1 chain", "light": "B1 light"}, "B8": {"name": "CE115HA000 G98Q one-arm antibody (antibody, human IgG1, kappa, L234A L235A, N297A, name in Kabat numbering)", "heavy": "B1 heavy with G104Q, M110D", "chain": "B1 chain", "light": "B1 light"}, "B9": {"name": "CE115HA000 E61Q one-arm antibody (antibody, human IgG1, kappa, L234A L235A, N297A, name in Kabat numbering)", "heavy": "B1 heavy with E64Q, M110D", "chain": "B1 chain", "light": "B1 light"}, "B10": {"name": "CE115HA000 E61P one-arm antibody (antibody, human IgG1, kappa, L234A L235A, N297A, name in Kabat numbering)", "heavy": "B1 heavy with E64P, M110D", "chain": "B1 chain", "light": "B1 light"}, "B11": {"name": "CE115HA000 D101Y one-arm antibody (antibody, human IgG1, kappa, L234A L235A, N297A, name in Kabat numbering)", "heavy": "B1 heavy with M110Y", "chain": "B1 chain", "light": "B1 light"}, "B12": {"name": "CE115HA000 G98H one-arm antibody (antibody, human IgG1, kappa, L234A L235A, N297A, name in Kabat numbering)", "heavy": "B1 heavy with G104H, M110D", "chain": "B1 chain", "light": "B1 light"}, "B13": {"name": "CE115HA000 D101Q one-arm antibody (antibody, human IgG1, kappa, L234A L235A, N297A, name in Kabat numbering)", "heavy": "B1 heavy with M110Q", "chain": "B1 chain", "light": "B1 light"}, "B14": {"name": "CE115HA000 G100bF one-arm antibody (antibody, human IgG1, kappa, L234A L235A, N297A, name in Kabat numbering)", "heavy": "B1 heavy with G108F, M110D", "chain": "B1 chain", "light": "B1 light"}, "B15": {"name": "CE115HA000 D101V one-arm antibody (antibody, human IgG1, kappa, L234A L235A, N297A, name in Kabat numbering)", "heavy": "B1 heavy with M110V", "chain": "B1 chain", "light": "B1 light"}, "B16": {"name": "CE115HA000 E61A one-arm antibody (antibody, human IgG1, kappa, L234A L235A, N297A, name in Kabat numbering)", "heavy": "B1 heavy with E64A, M110D", "chain": "B1 chain", "light": "B1 light"}, "B17": {"name": "CE115HA000 G65E one-arm antibody (antibody, human IgG1, kappa, L234A L235A, N297A, name in Kabat numbering)", "heavy": "B1 heavy with G68E, M110D", "chain": "B1 chain", "light": "B1 light"}, "B18": {"name": "CE115HA000 G98D one-arm antibody (antibody, human IgG1, kappa, L234A L235A, N297A, name in Kabat numbering)", "heavy": "B1 heavy with G104D, M110D", "chain": "B1 chain", "light": "B1 light"}, "B19": {"name": "CE115HA000 G98Y one-arm antibody (antibody, human IgG1, kappa, L234A L235A, N297A, name in Kabat numbering)", "heavy": "B1 heavy with G104Y, M110D", "chain": "B1 chain", "light": "B1 light"}, "B20": {"name": "CE115HA000 G100bL one-arm antibody (antibody, human IgG1, kappa, L234A L235A, N297A, name in Kabat numbering)", "heavy": "B1 heavy with G108L, M110D", "chain": "B1 chain", "light": "B1 light"}, "B21": {"name": "CE115HA000 D101P one-arm antibody (antibody, human IgG1, kappa, L234A L235A, N297A, name in Kabat numbering)", "heavy": "B1 heavy with M110P", "chain": "B1 chain", "light": "B1 light"}, "B22": {"name": "CE115HA000 G65D one-arm antibody (antibody, human IgG1, kappa, L234A L235A, N297A, name in Kabat numbering)", "heavy": "B1 heavy with G68D, M110D", "chain": "B1 chain", "light": "B1 light"}, "B23": {"name": "CE115HA000 D101T one-arm antibody (antibody, human IgG1, kappa, L234A L235A, N297A, name in Kabat numbering)", "heavy": "B1 heavy with M110T", "chain": "B1 chain", "light": "B1 light"}, "B24": {"name": "CE115HA000 G100bS one-arm antibody (antibody, human IgG1, kappa, L234A L235A, N297A, name in Kabat numbering)", "heavy": "B1 heavy with G108S, M110D", "chain": "B1 chain", "light": "B1 light"}, "B25": {"name": "CE115HA000 G98R one-arm antibody (antibody, human IgG1, kappa, L234A L235A, N297A, name in Kabat numbering)", "heavy": "B1 heavy with G104R, M110D", "chain": "B1 chain", "light": "B1 light"}, "B26": {"name": "CE115HA000 E61D one-arm antibody (antibody, human IgG1, kappa, L234A L235A, N297A, name in Kabat numbering)", "heavy": "B1 heavy with E64D, M110D", "chain": "B1 chain", "light": "B1 light"}, "B27": {"name": "CE115HA000 G98P one-arm antibody (antibody, human IgG1, kappa, L234A L235A, N297A, name in Kabat numbering)", "heavy": "B1 heavy with G104P, M110D", "chain": "B1 chain", "light": "B1 light"}, "B28": {"name": "CE115HA000 F29V one-arm antibody (antibody, human IgG1, kappa, L234A L235A, N297A, name in Kabat numbering)", "heavy": "B1 heavy with F29V, M110D", "chain": "B1 chain", "light": "B1 light"}, "B29": {"name": "CE115HA000 D101S one-arm antibody (antibody, human IgG1, kappa, L234A L235A, N297A, name in Kabat numbering)", "heavy": "B1 heavy with M110S", "chain": "B1 chain", "light": "B1 light"}, "B30": {"name": "CE115HA000 G100bD one-arm antibody (antibody, human IgG1, kappa, L234A L235A, N297A, name in Kabat numbering)", "heavy": "B1 heavy with G108D, M110D", "chain": "B1 chain", "light": "B1 light"}, "B31": {"name": "CE115HA000 G98K one-arm antibody (antibody, human IgG1, kappa, L234A L235A, N297A, name in Kabat numbering)", "heavy": "B1 heavy with G104K, M110D", "chain": "B1 chain", "light": "B1 light"}, "B32": {"name": "CE115HA000 G98S one-arm antibody (antibody, human IgG1, kappa, L234A L235A, N297A, name in Kabat numbering)", "heavy": "B1 heavy with G104S, M110D", "chain": "B1 chain", "light": "B1 light"}},
  "note": "Numbering of substitutions follows the chain as printed. In names and notes the source's numbering stands.",
  "data": [
    {"molecular_target": "T1, CD3ε homodimer protein (human, UniProt P07766 23-126, limits assumed, sulfo-tag or biotin label in the ECL assays; amine-coupled to the chip in SPR)", "T1 construct": "also called human CD3ε homodimer protein; CD3 (CD3ε)", "T1 sequence (P07766 23-126 limits assumed)": "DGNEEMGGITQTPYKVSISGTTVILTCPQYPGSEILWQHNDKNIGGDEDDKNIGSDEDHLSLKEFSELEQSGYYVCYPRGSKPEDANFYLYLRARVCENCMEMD", "experiment": "SPR Biacore T200; CD3ε homodimer on CM4 chip;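 also: Single-residue variant antibodies injected as analyte over CD3ε homodimer immobilized by amine coupling, run at 25 °C in HBS-EP+ buffer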", "values": [
      {"binder": "B1", "ratio of amounts bound Z=Y/X (altered form / CE115HA000)": 1.2},
      {"binder": "B2", "ratio of amounts bound Z=Y/X (altered form / CE115HA000)": 2.02},
      {"binder": "B3", "ratio of amounts bound Z=Y/X (altered form / CE115HA000)": 0.24},
      {"binder": "B4", "ratio of amounts bound Z=Y/X (altered form / CE115HA000)": 1.1},
      {"binder": "B5", "ratio of amounts bound Z=Y/X (altered form / CE115HA000)": 0.26},
      {"binder": "B6", "ratio of amounts bound Z=Y/X (altered form / CE115HA000)": 1.05},
      {"binder": "B7", "ratio of amounts bound Z=Y/X (altered form / CE115HA000)": 0.23},
      {"binder": "B8", "ratio of amounts bound Z=Y/X (altered form / CE115HA000)": 1.22},
      {"binder": "B9", "ratio of amounts bound Z=Y/X (altered form / CE115HA000)": 1.07},
      {"binder": "B10", "ratio of amounts bound Z=Y/X (altered form / CE115HA000)": 1.07},
      {"binder": "B11", "ratio of amounts bound Z=Y/X (altered form / CE115HA000)": 0.49},
      {"binder": "B12", "ratio of amounts bound Z=Y/X (altered form / CE115HA000)": 1.58},
      {"binder": "B13", "ratio of amounts bound Z=Y/X (altered form / CE115HA000)": 2.35},
      {"binder": "B14", "ratio of amounts bound Z=Y/X (altered form / CE115HA000)": 0.3},
      {"binder": "B15", "ratio of amounts bound Z=Y/X (altered form / CE115HA000)": 1.33},
      {"binder": "B16", "ratio of amounts bound Z=Y/X (altered form / CE115HA000)": 1.09},
      {"binder": "B17", "ratio of amounts bound Z=Y/X (altered form / CE115HA000)": 0.78},
      {"binder": "B18", "ratio of amounts bound Z=Y/X (altered form / CE115HA000)": 0.26},
      {"binder": "B19", "ratio of amounts bound Z=Y/X (altered form / CE115HA000)": 2.22},
      {"binder": "B20", "ratio of amounts bound Z=Y/X (altered form / CE115HA000)": 0.27},
      {"binder": "B21", "ratio of amounts bound Z=Y/X (altered form / CE115HA000)": 0.2},
      {"binder": "B22", "ratio of amounts bound Z=Y/X (altered form / CE115HA000)": 0.76},
      {"binder": "B23", "ratio of amounts bound Z=Y/X (altered form / CE115HA000)": 0.79},
      {"binder": "B24", "ratio of amounts bound Z=Y/X (altered form / CE115HA000)": 0.52},
      {"binder": "B25", "ratio of amounts bound Z=Y/X (altered form / CE115HA000)": 2.96},
      {"binder": "B26", "ratio of amounts bound Z=Y/X (altered form / CE115HA000)": 0.91},
      {"binder": "B27", "ratio of amounts bound Z=Y/X (altered form / CE115HA000)": 1.02},
      {"binder": "B28", "ratio of amounts bound Z=Y/X (altered form / CE115HA000)": 0.36},
      {"binder": "B29", "ratio of amounts bound Z=Y/X (altered form / CE115HA000)": 1.16},
      {"binder": "B30", "ratio of amounts bound Z=Y/X (altered form / CE115HA000)": 0.27},
      {"binder": "B31", "ratio of amounts bound Z=Y/X (altered form / CE115HA000)": 2.83},
      {"binder": "B32", "ratio of amounts bound Z=Y/X (altered form / CE115HA000)": 1.01}
    ]}
  ]
}
